The record followed here is article PMC5118228 (EJNMMI Research, 2016).

In the data set the test system is neutrophil gelatinase-associated lipocalin (NGAL). Nature of the data set: Serum NGAL by ELISA (kidney injury biomarker). The data set is classed as in vivo, mice. As to the method:
MTD was defined as the highest dose given to the animals allowing 100% survival with no significant weight loss >15% throughout the experiment. Nontumor-bearing mice were randomly divided into seven cohorts used to evaluate MTD, six treatments and one control (n = 8/cohort); see Table 1. […] Control mice received DOTATATE (4 × 0.3 nmol) on four consecutive days. The animals were followed for 90 days. Serum was analyzed for the biomarker neutrophil gelatinase-associated lipocalin (NGAL) using ELISA (R&D Systems, 450 nm).

On to `C[C@@H](O)[C@H](NC(=O)[C@@H]1CSSC[C@H](NC(=O)[C@@H](Cc2ccccc2)NC(=O)CN2CCN(CC(=O)O)CCN(CC(=O)O)CCN(CC(=O)O)CC2)C(=O)N[C@@H](Cc2ccc(O)cc2)C(=O)N[C@H](Cc2c[nH]c3ccccc23)C(=O)N[C@@H](CCCCN)C(=O)N[C@@H]([C@@H](C)O)C(=O)N1)C(=O)O` [^213Bi-DOTATATE, metal not drawn], for which the NGAL level (high-dose(−), 28.7 ± 1.2 MBq, without L-lysine, serum ELISA) was found to be 15.8 ± 3.5 ng/mL. For the setting “low-dose(−) and low-dose(+) cohorts”, the “nephrotoxicity (NGAL)” value is given as “No nephrotoxicity”.
